Results taken from patent EP4725969A1 (Latticon (Suzhou) Biopharmaceuticals Co., Ltd., dated 2024).
Read-outs that look alike come from different tables or passages of the source.

What was measured:
[1] = molecular target: T1, recombinant human HER2 extracellular domain protein (human, UniProt P04626 23-652); experiment: BLI, Protein A capture
T1 construct: range 23-652; Range is printed for the immunogen/panning protein; also called ErbB2; recombinant HER2 protein

[2] = molecular target: T1, recombinant human HER2 extracellular …; experiment: BLI, Protein A capture; remark: listed apart in the source

Row | Binder | Kd [1] | koff [1] | kon [1] | Kd [2] | koff [2] | kon [2]
1 | 2126-Hu-L13 (antibody, IgG1, V domains shown, IgG1/Cκ) VH: QVQLVQSGSELKKPGASVKVSCKASGYTFTDYSMHWVRQAPGQGLEWMGWINTETGEPTYADDFKGRFVFSLDTSVSTAYLQISSLKAEDTAVYFCVRVGRYDYAMDYWGQGTTVTVSS VL: DIQMTQSPSSLSASVGDRVTITCKASQDVYTAVAWYQQKPGKAPKLLINSASTRYTGVPSRFSGSGSGTDFTLTISSLQPEDFATYYCQQHYSTPPTFGGGTKVEIK | 5.34 nM | 0.000531 s⁻¹ | 99500 M⁻¹ s⁻¹ | – | – | –
2 | 2126-Hu-L18 (antibody, IgG1, V domains shown, IgG1/Cκ) VH: QVQLVQSGSELKKPGASVKVSCKASGYTFTDYSMHWVRQAPGQGLEWMGWINTETGEPTYADDFKGRFVFSLDTSVSTAYLQISSLKAEDTAVYFCVRVGRYDYAMDYWGQGTTVTVSS VL: DIQMTQSPSSLSASVGDRVTITCKASQDVYTAVAWYQQKPGKAPKLLINSASYRYTGVPSRFSGSGSGTDFTLTISSLQPEDFATYYCQQSYSTPPTFGGGTKVEIK | 8.83 nM | 0.000912 s⁻¹ | 103000 M⁻¹ s⁻¹ | – | – | –
3 | 2126-Hu-L11 (antibody, IgG1, V domains shown, IgG1/Cκ) VH: QVQLVQSGSELKKPGASVKVSCKASGYTFTDYSMHWVRQAPGQGLEWMGWINTETGEPTYADDFKGRFVFSLDTSVSTAYLQISSLKAEDTAVYFCVRVGRYDYAMDYWGQGTTVTVSS VL: DIQMTQSPSSLSASVGDRVTITCKASQDVYTAVAWYQQKPGKAPKLLINSASQRYTGVPSRFSGSGSGTDFTLTISSLQPEDFATYYCQQHYSTPPTFGGGTKVEIK | 6.25 nM | 0.000651 s⁻¹ | 104000 M⁻¹ s⁻¹ | – | – | –
4 | 2126-Hu-L12 (antibody, IgG1, V domains shown, IgG1/Cκ) VH: QVQLVQSGSELKKPGASVKVSCKASGYTFTDYSMHWVRQAPGQGLEWMGWINTETGEPTYADDFKGRFVFSLDTSVSTAYLQISSLKAEDTAVYFCVRVGRYDYAMDYWGQGTTVTVSS VL: DIQMTQSPSSLSASVGDRVTITCKASQDVYTAVAWYQQKPGKAPKLLINSASSRYTGVPSRFSGSGSGTDFTLTISSLQPEDFATYYCQQHYSTPPTFGGGTKVEIK | 6.13 nM | 0.000619 s⁻¹ | 101000 M⁻¹ s⁻¹ | – | – | –
5 | 2126-Hu-L16 (antibody, IgG1, V domains shown, IgG1/Cκ) VH: QVQLVQSGSELKKPGASVKVSCKASGYTFTDYSMHWVRQAPGQGLEWMGWINTETGEPTYADDFKGRFVFSLDTSVSTAYLQISSLKAEDTAVYFCVRVGRYDYAMDYWGQGTTVTVSS VL: DIQMTQSPSSLSASVGDRVTITCKASQDVYTAVAWYQQKPGKAPKLLINSASYRPTGVPSRFSGSGSGTDFTLTISSLQPEDFATYYCQQHYSTPPTFGGGTKVEIK | 4.38 nM | 0.000464 s⁻¹ | 106000 M⁻¹ s⁻¹ | – | – | –
6 | 2126-Hu-L08 (antibody, IgG1, V domains shown, IgG1/Cκ) VH: QVQLVQSGSELKKPGASVKVSCKASGYTFTDYSMHWVRQAPGQGLEWMGWINTETGEPTYADDFKGRFVFSLDTSVSTAYLQISSLKAEDTAVYFCVRVGRYDYAMDYWGQGTTVTVSS VL: DIQMTQSPSSLSASVGDRVTITCKASQDVYTAVAWYQQKPGKAPKLLINSASERYTGVPSRFSGSGSGTDFTLTISSLQPEDFATYYCQQHYSTPPTFGGGTKVEIK | 6.57 nM | 0.00062 s⁻¹ | 94300 M⁻¹ s⁻¹ | – | – | –
7 | 2126-Hu-L05 (antibody, IgG1, V domains shown, IgG1/Cκ) VH: QVQLVQSGSELKKPGASVKVSCKASGYTFTDYSMHWVRQAPGQGLEWMGWINTETGEPTYADDFKGRFVFSLDTSVSTAYLQISSLKAEDTAVYFCVRVGRYDYAMDYWGQGTTVTVSS VL: DIQMTQSPSSLSASVGDRVTITCKASQDVYTAVAWYQQKPGKAPKLLIYSASYRYTGVPSRFSGSGSGTDFTLTISSLQPEDFATYYCQQHYSTPPTFGGGTKVEIK | 13.4 nM | 0.00139 s⁻¹ | 104000 M⁻¹ s⁻¹ | – | – | –
8 | Hu2117HK-Mu01 (Fc fusion, scFv-hIgG1 Fc; not shown: human IgG1 Fc) scFv: EVQLVESGGGLVQPGGSLRLSCAASGFTYSSYGMSWVRQAPGKGLEWVASISGGGSYTKYPDSVKGRFTISRDNSKNTLYLQMNSLRAEDTAVYYCARDYAGFFDVWGQGTLVTVSSGGGGSGGGGSGGGGSDIQMTQSPSSLSASVGDRVTITCRSSQSLVHSNGNTYLHWYQQKPGKSPKLLIYKVSNRFSGVPSRFSGSGSGTDFTLTISSLQPEDFATYFCSQSTHVPYTFGQGTKVEIK | – | – | – | 8.33 nM | 0.000718 s⁻¹ | 86200 M⁻¹ s⁻¹

Results, then the binder that gave them:

Row | Kd [1] | koff [1] | kon [1] | Kd [2] | koff [2] | kon [2] | Binder
9 | 13.9 nM | 0.000611 s⁻¹ | 43900 M⁻¹ s⁻¹ | – | – | – | 2126-Hu-L04 (antibody, IgG1, V domains shown, IgG1/Cκ) VH: QVQLVQSGSELKKPGASVKVSCKASGYTFTDYSMHWVRQAPGQGLEWMGWINTETGEPTYADDFKGRFVFSLDTSVSTAYLQISSLKAEDTAVYFCVRVGRYDYAMDYWGQGTTVTVSS VL: DIQMTQSPSSLSASVGDRVTITCKASQDVYTYVAWYQQKPGKAPKLLINSASYRYTGVPSRFSGSGSGTDFTLTISSLQPEDFATYYCQQHYSTPPTFGGGTKVEIK
10 | 1.77 nM | 0.000193 s⁻¹ | 109000 M⁻¹ s⁻¹ | – | – | – | 2126-Hu-L21 (antibody, IgG1, V domains shown, IgG1/Cκ) VH: QVQLVQSGSELKKPGASVKVSCKASGYTFTDYSMHWVRQAPGQGLEWMGWINTETGEPTYADDFKGRFVFSLDTSVSTAYLQISSLKAEDTAVYFCVRVGRYDYAMDYWGQGTTVTVSS VL: DIQMTQSPSSLSASVGDRVTITCKASQDVYTAVAWYQQKPGKAPKLLINSASYRYTGVPSRFSGSGSGTDFTLTISSLQPEDFATYYCQQYYSTPPTFGGGTKVEIK
11 | 6.48 nM | 0.000666 s⁻¹ | 103000 M⁻¹ s⁻¹ | – | – | – | 2126-Hu-L14 (antibody, IgG1, V domains shown, IgG1/Cκ) VH: QVQLVQSGSELKKPGASVKVSCKASGYTFTDYSMHWVRQAPGQGLEWMGWINTETGEPTYADDFKGRFVFSLDTSVSTAYLQISSLKAEDTAVYFCVRVGRYDYAMDYWGQGTTVTVSS VL: DIQMTQSPSSLSASVGDRVTITCKASQDVYTAVAWYQQKPGKAPKLLINSASYRATGVPSRFSGSGSGTDFTLTISSLQPEDFATYYCQQHYSTPPTFGGGTKVEIK
12 | 5.11 nM | 0.00049 s⁻¹ | 95900 M⁻¹ s⁻¹ | – | – | – | 2126-Hu-L09 (antibody, IgG1, V domains shown, IgG1/Cκ) VH: QVQLVQSGSELKKPGASVKVSCKASGYTFTDYSMHWVRQAPGQGLEWMGWINTETGEPTYADDFKGRFVFSLDTSVSTAYLQISSLKAEDTAVYFCVRVGRYDYAMDYWGQGTTVTVSS VL: DIQMTQSPSSLSASVGDRVTITCKASQDVYTAVAWYQQKPGKAPKLLINSASKRYTGVPSRFSGSGSGTDFTLTISSLQPEDFATYYCQQHYSTPPTFGGGTKVEIK
13 | 8.07 nM | 0.00085 s⁻¹ | 105000 M⁻¹ s⁻¹ | – | – | – | 2126-Hu-L19 (antibody, IgG1, V domains shown, IgG1/Cκ) VH: QVQLVQSGSELKKPGASVKVSCKASGYTFTDYSMHWVRQAPGQGLEWMGWINTETGEPTYADDFKGRFVFSLDTSVSTAYLQISSLKAEDTAVYFCVRVGRYDYAMDYWGQGTTVTVSS VL: DIQMTQSPSSLSASVGDRVTITCKASQDVYTAVAWYQQKPGKAPKLLINSASYRYTGVPSRFSGSGSGTDFTLTISSLQPEDFATYYCQQAYSTPPTFGGGTKVEIK
14 | 6.63 nM | 0.000659 s⁻¹ | 99400 M⁻¹ s⁻¹ | – | – | – | 2126-Hu-L06 (antibody, IgG1, V domains shown, IgG1/Cκ) VH: QVQLVQSGSELKKPGASVKVSCKASGYTFTDYSMHWVRQAPGQGLEWMGWINTETGEPTYADDFKGRFVFSLDTSVSTAYLQISSLKAEDTAVYFCVRVGRYDYAMDYWGQGTTVTVSS VL: DIQMTQSPSSLSASVGDRVTITCKASQDVYTAVAWYQQKPGKAPKLLINAASYRYTGVPSRFSGSGSGTDFTLTISSLQPEDFATYYCQQHYSTPPTFGGGTKVEIK
15 | 7.91 nM | 0.000786 s⁻¹ | 99300 M⁻¹ s⁻¹ | – | – | – | 2126-Hu-L17 (antibody, IgG1, V domains shown, IgG1/Cκ) VH: QVQLVQSGSELKKPGASVKVSCKASGYTFTDYSMHWVRQAPGQGLEWMGWINTETGEPTYADDFKGRFVFSLDTSVSTAYLQISSLKAEDTAVYFCVRVGRYDYAMDYWGQGTTVTVSS VL: DIQMTQSPSSLSASVGDRVTITCKASQDVYTAVAWYQQKPGKAPKLLINSASYRQTGVPSRFSGSGSGTDFTLTISSLQPEDFATYYCQQHYSTPPTFGGGTKVEIK
16 | 5.38 nM | 0.000558 s⁻¹ | 104000 M⁻¹ s⁻¹ | – | – | – | 2126-Hu-L10 (antibody, IgG1, V domains shown, IgG1/Cκ) VH: QVQLVQSGSELKKPGASVKVSCKASGYTFTDYSMHWVRQAPGQGLEWMGWINTETGEPTYADDFKGRFVFSLDTSVSTAYLQISSLKAEDTAVYFCVRVGRYDYAMDYWGQGTTVTVSS VL: DIQMTQSPSSLSASVGDRVTITCKASQDVYTAVAWYQQKPGKAPKLLINSASNRYTGVPSRFSGSGSGTDFTLTISSLQPEDFATYYCQQHYSTPPTFGGGTKVEIK
17 | 6.46 nM | 0.00061 s⁻¹ | 94300 M⁻¹ s⁻¹ | – | – | – | 2126-Hu-L07 (antibody, IgG1, V domains shown, IgG1/Cκ) VH: QVQLVQSGSELKKPGASVKVSCKASGYTFTDYSMHWVRQAPGQGLEWMGWINTETGEPTYADDFKGRFVFSLDTSVSTAYLQISSLKAEDTAVYFCVRVGRYDYAMDYWGQGTTVTVSS VL: DIQMTQSPSSLSASVGDRVTITCKASQDVYTAVAWYQQKPGKAPKLLINSASDRYTGVPSRFSGSGSGTDFTLTISSLQPEDFATYYCQQHYSTPPTFGGGTKVEIK
18 | 8.29 nM | 0.000906 s⁻¹ | 109000 M⁻¹ s⁻¹ | – | – | – | 2126-Hu-L15 (antibody, IgG1, V domains shown, IgG1/Cκ) VH: QVQLVQSGSELKKPGASVKVSCKASGYTFTDYSMHWVRQAPGQGLEWMGWINTETGEPTYADDFKGRFVFSLDTSVSTAYLQISSLKAEDTAVYFCVRVGRYDYAMDYWGQGTTVTVSS VL: DIQMTQSPSSLSASVGDRVTITCKASQDVYTAVAWYQQKPGKAPKLLINSASYRETGVPSRFSGSGSGTDFTLTISSLQPEDFATYYCQQHYSTPPTFGGGTKVEIK
19 | – | – | – | 8.32 nM | 0.000737 s⁻¹ | 88600 M⁻¹ s⁻¹ | Hu2117HK-Mu02 (Fc fusion, scFv-hIgG1 Fc; not shown: human IgG1 Fc) scFv: EVQLVESGGGLVQPGGSLRLSCAASGFTYSSYGMSWVRQAPGKGLEWVASISGGGSYTKYPDSVKGRFTISRDNSKNTLYLQMNSLRAEDTAVYYCARDYAGFFDVWGQGTLVTVSSGGGGSGGGGSGGGGSDIQMTQSPSSLSASVGDRVTITCRSSQSLVHSNGNTYLHWYQQKPGKAPKLLIYKVSNRFSGVPSRFSGSGSGTDFTLTISSLQPEDFAVYFCSQSTHVPYTFGQGTKVEIK
